18 sequences from a protein production outcome set (Wang et al. 2014) can be followed below.

The data set is described as follows: label from the status in PepcDB records.
As to “MWGQMRNRNWRSRALCTVVATSLLALGGPLLSATAAGGPNIAVGDATAASSSHGEYGAANITDGNQGTYWQSGGGSLPQWVQTDLGATERIDEVVLRLPAGWESRDQTLSVQGSADGTGFSTLKTSATYAFDPGSGNTVTIAFPATQTRFVRVDITANTGWQAAQLSELEVHAAGESSVNLAAGRRLTASSSTGAYTPGNGNDGNKATYWESANNALPQWLQADLGSARRVNRVVLRLPDGWPARSQTLKIQASDNGSDFTDLTAAKAYTFDAAGGQSATVTFDAATARYVRVLVTANTGQPAAQISELEVYGPETGDTQAPTTPANLAFTEPATGQIRLTWNESSDDTAVTGYDVYANGDLLTSVAGDVTTYTDTRPAGTTVTYHVRAKDAAGNQSGDSNSVTRRADTGDTQAPTAPSNLALTEPVPGQVKLTWTASTDDRGVTGYDVYADNKLRKSVAGNVTTYTDTQPASANVTYFVRAKDAAGNESGDSNSVFRGGTMDGSNLAVGKPITASSHIHTYVAENANDNSTSTYWEGAAGGYPNTLTLKLGANADVDSVVLKLNPDAGWSRRTQHIEVLGRAQDASGLTSLVAARDYVFDPASGGNSVTIPVGERAADVQLKFTSNTGATAGQVAEFQVIGTPAPNPDLEVTGLTASPGSPVESDEITVSATVRNSGAADAPAGKVAVRLGDTKVATADVPALEAGAQRTVSASLGAREAGSYELSAVADEANEIIEQNETNNTYTRPDPLVVKPVQSSDLVAAAVTTSPSSPAAGDDVTFRVALRNQGTQDSAGGGHPVTLALVDSKGDTVKTLTGTHSGVIAAGSTAPAVSLGTWKAANGSYSLKVTVADDANELPVKRENNTSTQPLFVGRGANMPYDMYEAEDGTVGGGATVVGPNRTIGDIAGEASGRKAVHLDRTGEYVEFTTKADTNTLVTRFSIPDAPGGGGIDATLDVYVDGVMKKALPLTSKYAWLYGAEASPGNSPGAGAPRHIYDEAHIMLGETVPAGSTIRLQKDAANTSDYAIDFVNLEQVSATANPDPAAYAVPAGFTHQDVQNALDKVRMDTSGKLVGVYLPPGDYQTSSKFQVYGKAVKVVGAGPWFTKFHAPTTQDNTDIGFRAEASAKGSTFANFAYFGNYTSRIDGPGKVFDFSNTSDIVIDNIWNEHMVCLYWGANTDRMTIRNSRIRNMFADGINMTNGSTDNLVSNNDARATGDDSFALFSAIDAGGADMKNNLYENLTTTLTWRAAGLAVYGGYNNTFRNIHIADTLVYSGITISSLDFGYPMNGFGTDPTTFENVSIVRAGGHFWGGQTFPGIWVFSASKVFQGIRVNNVDIVDPTYSGIMFQTNYVGGQPQFPIKDTVFTDVSVTGAHKSGDEFDAKSGFGLWANEMPESGQGPAVGEVTFNGLALGDNAVDIRNTTSTFKIIRNP”, the protein production entry is “failed”.
As to “MSPPGQHYAQADAPQRPVLVQESSYLQLSSEAAEFVTQCQICGKPCQLADEPLWTTLATTIPSTIGAMAVSSAPHLPSGSFEWLTAGRVDPGSRVVVLCPTVAHCRAVASHGADVLAVHRDPDTAEKLNRIPGVMAVCGSPESLPLNSSSFDAVLVHQGFHELAPGLALPEIARVLRPGSVLGVSWLVRDDTVPWVKRLAALLRTVDENAMSGDYGTESVHELISSKYFPEDEHTTKRLWVPVNRDSLVAMAAARPAVRALDSDARSNVLTKVAALADDSAGTSGLRLPYQLECWRAWVDHDELTTPIRPHDDGLTITL”, the protein production entry was “failed”.
Take “MFIGIYNRSVIVTYMGIASAMVGMYLADKHDIRYAILCLVIAGVCDLFDGKIARMCKRTEDEKLFGIQLDSLADVICFSALPISIFYGLGLNKWYHVVIYTAFTLAAITRLGFFNIKVMDSNRDKPVDYYSGLPVTCSAMIFPLFWLLSFCLDRHIFLLIYTIIIAVVAFLFVANIKIKKPKGIAYGVFVVLAVLMSLGIIFIGV”: the protein production result is listed as “failed”.
In the case of “MTFANTASINHYWRTHPALFTAMLLVVVLITSYFIDVFSGSAIAVLLILQLAVVVVALQCSANYAYFVAVFGAVSFNFLFTAPRYSLQMLNVEDIVNLTVFLLAALTSSKLAKHYRRQQDALEQAQLRNSILLSVSHDLRTPLATIIGTLTTLKEYQPKLSPAQTEELIDSAAAESHRLHQYIENLLQANKLQHGALKFSLDEANIREVLQRTIARFQTEQPRIQIQSEPELPSLMICSSLIEQAIFNVLDNALHYSPATQPVTVSLYRHQHMLRIDIQDQGKGIAPSQTGAIFELFYRQHPTTDGGAGLGLPVAKGIITAHNGTISAEKVAHGSLIRIALPITKESA” it was “failed”.
The entry for “MKLICSKANLLKGVNIVSKAVPTRTTMAILECILIDASANEIKLMANDMELGIETIIDGTIEERGIIALDAKIFSEIVRKLPDNDVTIETDASFKTVISCEKAKFNIIGKSGDDFSYIPYVERNESIVLSQFTLKEVIRQTIFSIADNDNNKLMTGELFEIEENKLRVVSLDGHRISIRYIEMKNHYDSKKVVVPGKTLQEISKIIPGSADEDVVIYITNNHIVFEFENTTVVSRLIEGEYFKIDQMLSSDYDTKVRINKRELLDCIDRATLLVKEGDKKPIIMNITDGNMELRINSFIGSMNEDIDIDKDGKDIMIGFNPKFFIDALRVIDEEEVNLYMVNPKAPCFIKDDEGKFIYLILPVNFNTAAN” is “not failed”; for “MKQVPDVNKIKFDPETKRIVRKDVPLMMNSFDKKAVEEAIRISERHGWETCVATMGPPQAVEVINEALRMGIERGYLITDPSLANSDTLITSRVLAAFALRYGPDLVLMGKYSLDGETSQVPAEVSALMGWPYVPSVSKIMISDHLELEQELENGIYTCSAPLPCVLSLSEKINRARAIKPDTPQMYDRIVQIDTKWLGLDLDGGRDSPTAVIGTEQVNSNRSPVFIDPGADMYRQIMEIIRVSR” it is “failed”.
In the case of “QTASGASYVLREIGADDTATAFAALSVLRSSLTDIGRFTEQINKIQRPQGYRLLGIFEECKHNAVAVCGFREACTLAGGRHIHIDDIVTLPQSRRKGYASRLLEEVRKIGAETGVTKIHLNVHVNHDRTDAHRLYFKNGFEICAYHFRCDPK”, the protein production result is “failed”.
The entry for “MKTIRSIGRFAVLAAMAALFAGCAGQQVKSEQRFFWPPLPERPRIEWLNAYSSQNDFPKSATEKFLTTIIGEEEGISLSKPITVRSDGRGKVYVGDPGAPGVYVFDFVNNIMRPFGKAEAEARIEQPVGIAIDENGRIYVSDTKKAAIMVFHQDETPAALINLKGMVEKIGDIAYDRIGKHLLALDVRGHKVLVLSLRGELLSSFGNRGTKPGEFNFPSALTVNNKGEIIVADAMNARIQIFSSDGKFLRMFGQRGDSPGTLQLIKGVAVDSDDNIYVTDGKGHKFEIFSTTGDYLLTVGGAFSALTTGKTAPGGFVIPQGIDIDKDNMIYVVDQLNRRFQVFRYISDSYLKANPIPGYTPSP” is “failed”; for “MNFNYQTAWPSLSRSFEWSPAMTSSSVNPAEKFDRSRADEYARQSRIALAGYDACHDLAACMLAASLGEGRAAHILAVGAGGTAQEIIAMASLEPGWRFTAVDPSAPMLETARQQLQAQGLLERTEVRLATVDELAADEPFDGATLIGVLHHLPGDEAKRQLLRAIARRLKPGAPLIVAGNHYAYAGQPLLLAAWGQRWRQQGATADEVHAKLGKILQGADPPHSEAAVQRLLEEGGFSAGTRFFSSLFWGAWLSRKRC” it is “failed”.
Regarding “MKKCFELTPCLLAFLCITSCVEDVDNERSKGMFSASQSGFSTIEVYDLGPLNKIDLSIAKAGLEDTGGTVTFSVEQSLLDSLNNADGTSYQLLPPECYTIENATYSVSPGGDRRVTGGSLVYDPHKIYNLCGFDELKYVLPLRVSSTGTPMNSDRTATLYGFIVKEAIVRLASTGGDFVVEGGTTTSPMNLDTEISFENEWDLTTSFATKGADYVDNYNSANSTYYIPLPSDFYTLPDVTIAKGKTTGGSAISLLGETLPPGNYLLPVSLGGLSGQGDASINIDKETVANYFVIKQGGPINRDHWTVTANTEEKTGEVSAAYPHNGQTISLIDGEINTFWHSKWQGGEVAPPYEIILDMGKENSVSQLGLIARQNALTSMNLEIYAGDDGETWNLIGKYFFDGSIKTEQMVPVKACDARWIRIYIPTLGSGSSVGHLAEIYVYGTDK”, the protein production result is listed as “failed”.
Take “DRLRAFNHRLQNTPESVKVLRDWNMELDKNVTEVQGRIIGQQNIVFHNGKVPAGENADWQRHFRDQRMLTTPSDGLDRWAVIAPQRNSHELRTLLDSLYR”: the protein production result is reported as “failed”.
The entry for “MSNKEGSGGFRKRKHDNFPHNQRREGKDVNSSSPVMLAFKSFQQELDARHDKYERLVKLSRDITVESKRTIFLLHRITSAPDMEDILTESEIKLDGVRQKIFQVAQELSGEDMHQFHRAITTGLQEYVEAVSFQHFIKTRSLISMDEINKQLIFTTEDNGKENKTPSSDAQDKQFGTWRLRVTPVDYLLGVADLTGELMRMCINSVGNGDIDTPFEVSQFLRQVYDGFSFIGNTGPYEVSKKLYTLKQSLAKVENACYALKVRGSEIPKHMLADVFSVKTEMIDQEEGIS” is “failed”; for “VKAAQGLLLSVFHLYPKRKVEIILYNEKWAECFDEEKERLKLVFGPEIIAIHHIGSTSIPNMAAKPIIDMLIEVRSIEAVSQFDEQMKANGYTPKGENGIAGRRYFQKGGNKRTHHVHMYEQGNPAIERHLLFRDYLRAHPNIAKEYAVLKKQLAAQHPDSINQYIQGKDEWIKTAEENAKRWKKGRNNANGSIVCYNSENDENGGFTL” it is “failed”; for “MGRVIVLGEVLLVGLRFVFVLLIYIFVWHVLRLMYLELGLAPAQSSRKRPVLVVLDAKNGGAKRGESYPLGENISIGRDNHNDIIINDSHVSARHAVITRQGREWKILDLDSTNGTYVNGLRLTGPHSLRPGDKISIGGVTFKVGWEDASRSPFPYRTGAAR” it is “failed”.
As for “MPPPAAAAGLAGRPGRGAGSRLRPAVAAAGRRAHMIRCRHGGPRLQDIRNTVGNVPLEWYDDFPHVGYDLDGRRIYKPLRTRDELDQFLDKMDDPDYWRTVQDPMTGRDLRLTDEQVALVRRLQSGQFGDVGFNPYEPAVDFFSGDVMIHPVTNRPADKRSFIPSLVEKEKVSRMVHAIKMGWIQPRRPRDPTPSFYDLWAQEDPNAVLGRHKMHVPAPKLALPGHAESYNPPPEYLLSEEERLAWEQQEPGERKLSFLPRKFPSLRAVPAYGRFIQERFERCLDLYLCPRQRKMRVNVDPEDLIPKLPRPRDLQPFPTCQALVYRGHSDLVRCLSVSPGGQWLVSGSDDGSLRLWEVATARCVRTVPVGGVVKSVAWNPSPAVCLVAAAVEDSVLLLNPALGDRLVAGSTDQLLSAFVPPEEPPLQPARWLEASEEERQVGLRLRICHGKPVTQVTWHGRGDYLAVVLATQGHTQVLIHQLSRRRSQSPFRRSHGQVQRVAFHPARPFLLVASQRSVRLYHLLRQELTKKLMPNCKWVSSLAVHPAGDNVICGSYDSKLVWFDLDLSTKPYRMLRHHKKALRAVAFHPRYPLFASGSDDGSVIVCHGMVYNDLLQNPLLVPVKVLKGHVLTRDLGVLDVIFHPTQPWVFSSGADGTVRLFT”, the protein production result is “failed”.
In the case of “MGKKNPNARHTDAATPLTTDDSNSSSVSRRESATESKSASESESSPPRSNTKQSRTHKNVKASGKATVSSSSDSDQAVANSSANDEEKEPVCKIRIVPLEKLLASPKTKERPSRGSQQKNVTINDSSDEEPLKGSKLVLPARKSRNKNAS”, the protein production result was “failed”.
On to “MPAIGSAPDGSRVSFMPKAWLLLALLLLLSLPARAEEWPALQWSQGTPASGPALQALEEYAFVPRDDESRQGIRTDALLVIRDGRLLYERYAGATGPQTPHLAWSASKSLLAVLLGVAFGEGRFQLQDPAAKFYPPLEAHPDITLADLLHWASGLDWQEDYEYAPLNSSVVAMLYTRGHRDMAAFTVQQAASGPPGQVFRYSSGDSNLLAASLRGMVGEGQYADYPWRALFEPLGITQAVWERDAAGTFVASSYLYLTARDLARIGLLMQRDGRWRDRQLLPKAWVEFCRTPFRGYRANQDVAVAGGHWWLNREVDGAPRPWPDAPADTYAALGHWGQALYVLPAQRLVIVRYGDDRDGSYQHNELLKRVLAAFATPEQP”, for which the protein production result is reported as “failed”.
In the case of “MGHHHHHHSHGSYANEISSSIIINRPAERLFDLWRKPETLPILMGHFASIEILNHTDSNWRINTPIGSLIEWQARIIDEKPGEYIHWRSLEGARVPNEGRLSFQPAASEAGTAVTLTIRYNPPGGLIGKKIGQMFDMFSRDMLTKTLYRFKKLAEDER”, the protein production entry was “not failed”.
